Patent US20060177894A1 (published 2006)
Substitutions are numbered along the chain they refer to. Names and notes keep the numbering of the source.

B1: hCG-αK44A (ligand)
chain 1: not shown
chain 2: SKEPLRPRCRPINATLAVEKEGCPVCITVNTTICAGYCPTMTRVLQGVLPALPQVVCNYRDVRFESIRLPGCPRGVNPVVSYAVALSCQCALCRRSTTDCGGPKDHPLTCDDPRFQDSSSSKAPPPSLPSPSRLPGPSDTPILPQ
notes: mature; heterodimer from COS-7 medium; also called αK44A+hCGβ
B2: αS43C + β (ligand)
chain 1: not shown
chain 2: B1 chain 2
notes: mature; heterodimer from COS-7 medium; also called hCG-αS43C
B3: hCG-αK91M (ligand)
chain 1: not shown
chain 2: B1 chain 2
notes: mature; heterodimer from COS-7 medium; also called αK91M+hCGβ
B4: αR42C + β (ligand)
chain 1: not shown
chain 2: B1 chain 2
notes: mature; heterodimer from COS-7 medium; also called hCG-αR42C
B5: αS43C + hCGβ-S138C (ligand)
chain 1: not shown
chain 2: B1 chain 2 with S138C
notes: mature; disulfide αCys43-βCys138
B6: αM47C + hCGβ-S138C (ligand)
chain 1: not shown
chain 2: B1 chain 2 with S138C
notes: mature; disulfide αCys47-βCys138
B7: αM47C + β (ligand)
chain 1: not shown
chain 2: B1 chain 2
notes: mature; heterodimer from COS-7 medium; also called hCG-αM47C
B8: αV49C + hCGβ-S138C (ligand)
chain 1: not shown
chain 2: B1 chain 2 with S138C
notes: mature; disulfide αCys49-βCys138
B9: hCG-αCTδ116/135,138C + hCG β-subunit analog with cysteine in place of Arg95 (ligand)
chain 1: not shown
chain 2: B1 chain 2 with N77P, P78N, R95C
notes: also called knob at β-subunit residue 95
B10: αH90C + hCGβ-S138C (ligand)
chain 1: not shown
chain 2: B1 chain 2 with S138C
notes: mature; disulfide αCys90-βCys138
B11: αN52C + hCGβ-S138C (ligand)
chain 1: not shown
chain 2: B1 chain 2 with S138C
notes: mature; disulfide αCys52-βCys138; lacks the αAsn52 oligosaccharide
B12: αT46C + β (ligand)
chain 1: not shown
chain 2: B1 chain 2
notes: mature; heterodimer from COS-7 medium; also called hCG-αT46C
B13: αK44C + β (ligand)
chain 1: not shown
chain 2: B1 chain 2
notes: mature; heterodimer from COS-7 medium; also called hCG-αK44C
B14: hCG-αM47A (ligand)
chain 1: not shown
chain 2: B1 chain 2
notes: mature; heterodimer from COS-7 medium
B15: αT86C + β (ligand)
chain 1: not shown
chain 2: B1 chain 2
notes: mature; heterodimer from COS-7 medium; also called hCG-αT86C
B16: αL48C + β (ligand)
chain 1: not shown
chain 2: B1 chain 2
notes: mature; heterodimer from COS-7 medium; also called hCG-αL48C
B17: αY88C + β (ligand)
chain 1: not shown
chain 2: B1 chain 2
notes: mature; heterodimer from COS-7 medium; also called hCG-αY88C
B18: hCG-αK44E, K45Q (ligand)
alpha: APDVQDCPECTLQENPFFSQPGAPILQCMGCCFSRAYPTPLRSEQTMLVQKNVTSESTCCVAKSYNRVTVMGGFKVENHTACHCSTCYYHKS
beta: B1 chain 2
modifications: Glycosylated heterodimer secreted by COS-7 cells; no engineered intersubunit disulfide.
notes: heterodimer from COS-7 medium; also called αK44E, K45Q+hCGβ
B19: αV53C + β (ligand)
chain 1: not shown
chain 2: B1 chain 2
notes: mature; heterodimer from COS-7 medium; also called hCG-αV53C
B20: αS92C + hCGβ-S138C (ligand)
chain 1: not shown
chain 2: B1 chain 2 with S138C
notes: mature; disulfide αCys92-βCys138
B21: αQ50C + β (ligand)
chain 1: not shown
chain 2: B1 chain 2
notes: mature; heterodimer from COS-7 medium; also called hCG-αQ50C
B22: αH90C + β (ligand)
chain 1: not shown
chain 2: B1 chain 2
notes: mature; heterodimer from COS-7 medium; also called hCG-αH90C
B23: hCG-αK91E (ligand)
chain 1: not shown
chain 2: B1 chain 2
notes: mature; heterodimer from COS-7 medium; also called αK91E+hCGβ
B24: αK44C + hCGβ-S138C (ligand)
chain 1: not shown
chain 2: B1 chain 2 with S138C
notes: mature; disulfide αCys44-βCys138
B25: αK45C + β (ligand)
chain 1: not shown
chain 2: B1 chain 2
notes: mature; heterodimer from COS-7 medium; also called hCG-αK45C
B26: αS64C/hCG-βS138C (ligand)
chain 1: not shown
chain 2: B1 chain 2 with S138C
notes: mature; disulfide αCys64-βCys138; also called hCGβS138C+αS64C
B27: αT46C + hCGβ-S138C (ligand)
chain 1: not shown
chain 2: B1 chain 2 with S138C
notes: mature; disulfide αCys46-βCys138
B28: αS92C + β (ligand)
chain 1: not shown
chain 2: B1 chain 2
notes: mature; heterodimer from COS-7 medium; also called hCG-αS92C
B29: hCG-αCTδ116/135,138C + hCG β-subunit analog with cysteine in place of Asp99 (ligand)
chain 1: not shown
chain 2: B1 chain 2 with N77P, P78N, D99C
notes: also called knob at β-subunit residue 99
B30: αK91C + β (ligand)
chain 1: not shown
chain 2: B1 chain 2
notes: mature; heterodimer from COS-7 medium; also called hCG-αK91C
B31: αK45C + hCGβ-S138C (ligand)
chain 1: not shown
chain 2: B1 chain 2 with S138C
notes: mature; disulfide αCys45-βCys138
B32: αL48C + hCGβ-S138C (ligand)
chain 1: not shown
chain 2: B1 chain 2 with S138C
notes: mature; disulfide αCys48-βCys138; also called hCGβS138C+αL48C
B33: αR42C + hCGβ-S138C (ligand)
chain 1: not shown
chain 2: B1 chain 2 with S138C
notes: mature; disulfide αCys42-βCys138
B34: αQ50C + hCGβ-S138C (ligand)
chain 1: not shown
chain 2: B1 chain 2 with S138C
B35: αV49C + β (ligand)
chain 1: not shown
chain 2: B1 chain 2
notes: mature; heterodimer from COS-7 medium; also called hCG-αV49C
B36: αK91C + hCGβ-S138C (ligand)
chain 1: not shown
chain 2: B1 chain 2 with S138C
notes: mature; disulfide αCys91-βCys138

Key:
[1] = target: T1, rat lutropin receptor (LHR) (rat, UniProt P16235 27-700); test: inhibition of 125I-hCG binding to CHO cells with rat LHR; from IC50; native β-subunit analog
T1 construct: whole, on cells; also called LH receptor
T1 sequence (P16235 27-700): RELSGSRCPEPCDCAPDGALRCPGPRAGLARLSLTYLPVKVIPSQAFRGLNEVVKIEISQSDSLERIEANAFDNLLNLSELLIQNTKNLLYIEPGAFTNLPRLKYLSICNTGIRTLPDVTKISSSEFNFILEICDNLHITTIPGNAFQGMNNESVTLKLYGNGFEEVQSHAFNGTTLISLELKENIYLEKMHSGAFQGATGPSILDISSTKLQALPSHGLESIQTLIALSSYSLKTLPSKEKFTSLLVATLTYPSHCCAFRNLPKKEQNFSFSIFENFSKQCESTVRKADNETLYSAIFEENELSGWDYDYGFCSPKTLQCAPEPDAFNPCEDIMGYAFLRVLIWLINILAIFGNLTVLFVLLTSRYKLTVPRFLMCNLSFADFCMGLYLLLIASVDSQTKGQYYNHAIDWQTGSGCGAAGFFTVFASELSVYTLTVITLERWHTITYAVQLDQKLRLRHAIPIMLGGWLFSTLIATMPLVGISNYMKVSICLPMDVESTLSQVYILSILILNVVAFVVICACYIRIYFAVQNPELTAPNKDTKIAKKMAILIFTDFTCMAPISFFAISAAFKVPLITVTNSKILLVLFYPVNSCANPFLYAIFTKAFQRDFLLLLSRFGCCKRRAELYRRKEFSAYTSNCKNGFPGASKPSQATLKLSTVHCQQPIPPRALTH

[2] = target: T1, rat lutropin receptor (LHR); test: cell-based or functional assay
[3] = target: T1, rat lutropin receptor (LHR); test: inhibition of 125I-hCG binding to CHO cells with rat LHR; from IC50; acid-stable hCGβ-S138C analog
[4] = target: T1, rat lutropin receptor (LHR); test: LHR binding and signaling assays
[5] = target: T1, rat lutropin receptor (LHR); test: LHR binding assay

Binder	Receptor-Binding potency (percent hCG) [1]	Signal Transduction potency (cAMP accumulation) [2]	Signal transduction potency (cAMP accumulation), acid-stable analog [2]	Receptor-Binding potency (percent hCG) [3]	further results
B1	84 % of hCG	–	–	–	–
B2	35 % of hCG	74 % of hCG	–	–	–
B3	68 % of hCG	66 % of hCG	–	–	–
B4	113 % of hCG	103 % of hCG	–	–	–
B5	–	–	43 % of hCG	17 % of hCG	–
B6	–	–	2.4 % of hCG	4.1 % of hCG	–
B7	8.7 % of hCG	23 % of hCG	–	–	–
B8	–	–	99 % of hCG	71 % of hCG	–
B9	–	–	–	–	binding result [4]: no binding
B10	–	–	1 % of hCG	3.1 % of hCG	–
B11	–	–	–	61 % of hCG	–
B12	38 % of hCG	56 % of hCG	–	–	–
B13	66 % of hCG	97 % of hCG	–	–	–
B14	83 % of hCG	–	–	–	–
B15	95 % of hCG	444 % of hCG	–	–	–
B16	60 % of hCG	147 % of hCG	–	–	–
B17	141 % of hCG	74 % of hCG	–	–	–
B18	58 % of hCG	42 % of hCG	–	–	–

Binder	Receptor-Binding potency (percent hCG) [1]	Signal Transduction potency (cAMP accumulation) [2]	Signal transduction potency (cAMP accumulation), acid-stable analog [2]	Receptor-Binding potency (percent hCG) [3]	further results
B19	149 % of hCG	–	–	–	–
B20	–	–	13 % of hCG	28 % of hCG	–
B21	81 % of hCG	216 % of hCG	–	–	–
B22	30 % of hCG	65 % of hCG	–	–	–
B23	4.3 % of hCG	1.1 % of hCG	–	–	fold lower affinity than hCG [5]: ~10 fold
B24	–	–	191 % of hCG	250 % of hCG	–
B25	93 % of hCG	91 % of hCG	–	–	–
B26	–	–	–	89 % of hCG	–
B27	–	–	52 % of hCG	50 % of hCG	–
B28	100 % of hCG	38 % of hCG	–	–	–
B29	–	–	–	–	binding result [4]: no binding
B30	41 % of hCG	56 % of hCG	–	–	–
B31	–	–	168 % of hCG	223 % of hCG	–
B32	–	–	99 % of hCG	66 % of hCG	–
B33	–	–	332 % of hCG	327 % of hCG	–
B34	–	–	308 % of hCG	–	–
B35	70 % of hCG	133 % of hCG	–	–	–
B36	–	–	–	2.2 % of hCG	–
